Assay results from the supplement of paper PMC7877785.
± gives the uncertainty stated by the source.

Experiment: self-splicing fitness, log relative to wild type (ln ratio); higher = more splicing; Tetrahymena group I intron in knt gene, E. coli kanamycin selection, DiMSum; sequences stand for … in CUCUCU…GGAGGGAAAAGUUAUCAGGCAUGCACCUGGUAGCUAGUCUUUAAACCAAUAGAUUGCAUCGGUUUAAAAGGCAAGACCGUCAAAUUGCGGGAAAGGGGUCAACAGCCGUUCAGUACCAAGUCUCAGGGGAAACUUUGAGAUGGCCUUGCAAAGGGUAUGGUAAUAAGCUGACGGACAUGGUCCUAACCACGCAGCCAAGUCCUAAGUCAACAGAUCUUCUGUUGAUAUGGAUGCAGUUCACAGACUAAAUGUCGGUCGGGGAAGAUGUAUUCUUCUCAUAAGAUAUAGUCGGACCUCUCCUUAAUGGGAGCUAGCGGAUGAAGUGAUGCAACACUGGAGCCGCUGGGAACUAAUUUGUAUGCGAAAGUAUAUUGAUUAGUUUUGGAGUACUCGUGGUCG
Method in brief: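 Six replicate transformations of E. coli BL21(DE3) with a pET-22b(+) library were grown overnight at 37°C or 30°C. The library randomised all eight P1ex-region intron nucleotides, the intron lying in the knt kanamycin-resistance gene, and plates were LB agar with or without 25 μg/mL kanamycin plus 100 μg/mL carbenicillin, 50 μM IPTG and 0.2% rhamnose. Pooled colonies were amplicon-sequenced on an Illumina HiSeq 2500, and fitness is the DiMSum error-weighted combination of wild-type-normalised replicate fold changes, kanamycin versus none.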

Sequence	self-splicing fitness (ln) (30 °C)	self-splicing fitness (ln) (37 °C)
UCAAAGCAAUAUUACGCCGG	-0.974 ± 0.13	0.015 ± 0.15
UCAAAGCAAUAUUACGCGUA	-0.554 ± 0.1	-0.355 ± 0.099
UCAAAGCAAUAUUACGCUCC		-2.37 ± 0.48
UCAAAGCAAUAUUACGGAAG	-2.03 ± 0.17	-2.38 ± 0.28
UCAAAGCAAUAUUACGGACG	-1.16 ± 0.079	-0.282 ± 0.1
UCAAAGCAAUAUUACGGCAG	-1.24 ± 0.12	0.177 ± 0.16
UCAAAGCAAUAUUACGGCUU	-5.11 ± 0.45	-2.32 ± 0.2
UCAAAGCAAUAUUACGGGAA	-1.5 ± 0.15	-0.928 ± 0.16
UCAAAGCAAUAUUACGGGCA	-0.629 ± 0.063	-0.273 ± 0.069
UCAAAGCAAUAUUACGGGUC	-3.59 ± 0.23	-3.14 ± 0.25
UCAAAGCAAUAUUACGGUGU	-2.8 ± 0.11	-1.31 ± 0.099
UCAAAGCAAUAUUACGUAGA	-1.47 ± 0.082	-0.85 ± 0.098
UCAAAGCAAUAUUACGUAGC	-4 ± 0.31	-2.52 ± 0.27
UCAAAGCAAUAUUACGUCAU	-2.36 ± 0.14	-2.71 ± 0.2
UCAAAGCAAUAUUACGUCCA	-1.19 ± 0.13	-0.715 ± 0.13
UCAAAGCAAUAUUACGUGAC	-3.36 ± 0.12	-2.15 ± 0.16
UCAAAGCAAUAUUACGUGAU	-3.95 ± 0.17	-2.64 ± 0.21
UCAAAGCAAUAUUACGUUGG	-3.81 ± 0.18	-3 ± 0.24
UCAAAGCAAUAUUACGUUGU	-3.4 ± 0.13	-2.02 ± 0.12

Sequence	self-splicing fitness (ln) (30 °C)	self-splicing fitness (ln) (37 °C)
UCACAGCAAUAUUACGAACA	-1.58 ± 0.1	-1.64 ± 0.11
UCACAGCAAUAUUACGAACG	-1.61 ± 0.18	-1.19 ± 0.21
UCACAGCAAUAUUACGAAGA	-1.18 ± 0.085	-1.09 ± 0.093
UCACAGCAAUAUUACGAAUC		-1.26 ± 0.17
UCACAGCAAUAUUACGACUA	-1.21 ± 0.14	-0.431 ± 0.12
UCACAGCAAUAUUACGAGUC	-2.97 ± 0.15	-3.01 ± 0.2
UCACAGCAAUAUUACGAUCA	-1.45 ± 0.091	-0.503 ± 0.088
UCACAGCAAUAUUACGAUGA	-1.29 ± 0.1	-0.136 ± 0.11
UCACAGCAAUAUUACGCGAC	-3.43 ± 0.21	-2.51 ± 0.26
UCACAGCAAUAUUACGCGCG	-0.645 ± 0.089	-0.233 ± 0.11
UCACAGCAAUAUUACGCUCA	-1.61 ± 0.14	-0.171 ± 0.12
UCACAGCAAUAUUACGCUGU	-2.88 ± 0.16	-2.19 ± 0.24
UCACAGCAAUAUUACGGAUC	-4.77 ± 0.46	-3.11 ± 0.33
UCACAGCAAUAUUACGGCCA	-1.78 ± 0.28	-1.19 ± 0.21
UCACAGCAAUAUUACGGGAG	-3.75 ± 0.17	-3.24 ± 0.22
UCACAGCAAUAUUACGGUGU	-2.41 ± 0.17	-2.23 ± 0.14
UCACAGCAAUAUUACGUAUG	-0.949 ± 0.063	-1.54 ± 0.099
UCACAGCAAUAUUACGUCAU	-3.09 ± 0.17	-1.43 ± 0.12
UCACAGCAAUAUUACGUGCU	-3.75 ± 0.19	-2.72 ± 0.15
